Measurements reported in US20260207704A1, “STAPLED PEPTIDES AND METHODS THEREOF” (priority 2022, published 2026).
*1 amine or outer side, *2 acyl side, *3 side chain or, on linkers, in order; H or OH if unused. Bridges are numbered along the chain shown (N, C = ends). Primed or numbered codes have the meaning given here. [ ]: non-standard residue; d: D form. PyrS2″ = (S)-3-amino-1-((pent-4-en-1-yloxy)carbonyl)pyrrolidine-3-carboxylic acid (olefin stapling residue), C=CCCCOC(=O)N1CC[C@@](N[*:1])(C(=O)[*:2])C1; PyrS2 = (S)-3-amino-1-((pent-4-en-1-yloxy)carbonyl)pyrrolidine-3-carboxylic acid, olefin staple residue, C=CCCCOC(=O)N1CC[C@@](N[*:1])(C(=O)[*:2])C1; PyrS2(5) = (S)-3-amino-1-((pent-4-en-1-yloxy)carbonyl)pyrrolidine-3-carboxylic acid, C=CCCCOC(=O)N1CC[C@@](N[*:1])(C(=O)[*:2])C1; B5″ = 2-amino-2-(pent-4-en-1-yl)hept-6-enoic acid (bis-olefin stapling residue), C=CCCCC(CCCC=C)(N[*:1])C(=O)[*:2]; 2F3MeF″ = aromatic residue, Cc1cccc(C[C@H](N[*:1])C(=O)[*:2])c1F; Phe(3-COOH) = N[C@@H](Cc1cccc(C(=O)O)c1)C(=O)O; 2F3MeF = Cc1cccc(C[C@H](N[*:1])C(=O)[*:2])c1F; Bta = N[C@@H](Cc1csc2ccccc12)C(=O)O; Lys(iPr) = CC(C)NCCCC[C@H](N)C(=O)O; αAllylPro = C=CC[C@@]1(C(=O)O)CCCN1; BztA = aromatic amino acid residue; tBuAla = CC(C)(C)C[C@H](N)C(=O)O; 3Thi = N[C@@H](Cc1ccsc1)C(=O)O; Cha = N[C@@H](CC1CCCCC1)C(=O)O; hSer = N[C@@H](CCO)C(=O)O; BztA″ = aromatic residue; Nle = CCCC[C@H](N)C(=O)O; GlnR = not defined here; PL3 = not defined here; B5 = not defined here

B1: I-149 (peptide)
peptide: Ac-[αAllylPro]N[Cha][B5″]DQ[Lys(iPr)]AF[GlnR][PyrS2″]F[Bta]K-NH2
modifications: bridge 10-14; reading uncertain; also: PL3-B5 and PyrS2 links not placed, printed as Ac-PL3-Asn-Cha-B5-Asp-Gln-iPrLys-Ala-Phe-GlnR*3-PyrS2-Phe-BztA-Lys*3-NH2
B2: I-134 (peptide)
peptide: Ac-[αAllylPro]D[tBuAla][B5]D[Phe(3-COOH)][GlnR]AFL[PyrS2][2F3MeF][Bta][GlnR](29N2spiroundecane)A-NH2
modifications: staple 1-4, 4-11 (inferred); not fully specified; printed as Ac-PL3-Asp-Npg-B5-Asp-3COOHF-GlnR-Ala-Phe-Leu-PyrS2-2F3MeF-BztA-[29N2spiroundecane]GlnR-Ala-NH2; reading uncertain; also: staple C=C reduced to CH2-CH2
B3: I-131 (peptide)
peptide: Ac-[αAllylPro]D[tBuAla][B5]D[Phe(3-COOH)][GlnR]AFL[PyrS2″][2F3MeF″][BztA″][GlnR](29N2spiroundecane)A-NH2
modifications: reading uncertain; also: staple links not given here, printed as Ac-PL3-Asp-Npg-B5-Asp-3COOHF-GlnR-Ala-Phe-Leu-PyrS2-2F3MeF-BztA-[29N2spiroundecane]GlnR-Ala-NH2
B4: I-143 (peptide)
peptide: Ac-[αAllylPro]N[tBuAla][B5]D[Phe(3-COOH)][Nle]AFK[PyrS2″][2F3MeF″][BztA″][GlnR]LS-NH2
modifications: bridge 10-14; not fully specified (bridges); printed as Ac-PL3-Asn-Npg-B5-Asp-3COOHF-nLeu-Ala-Phe-Lys*3-PyrS2-2F3MeF-BztA-GlnR*3-Leu-Ser-NH2; reading uncertain; also: Lys10 and GlnR14 marked *3
B5: I-142 (peptide)
peptide: Ac-[αAllylPro]N[tBuAla][B5]D[Phe(3-COOH)]AAFK[PyrS2(5)][2F3MeF″][BztA″][GlnR]LS-NH2
modifications: bridge 10-14; not fully specified (bridges); printed as Ac-PL3-Asn-Npg-B5-Asp-3COOHF-Ala-Ala-Phe-Lys*3-PyrS2-2F3MeF-BztA-GlnR*3-Leu-Ser-NH2; reading uncertain; also: Lys10 and GlnR14 marked *3
B6: I-87 (peptide)
peptide: Ac-[PL3]D[tBuAla][B5][hSer][Phe(3-COOH)]SAFK[PyrS2(5)][3Thi][BztA][GlnR]A-NH2
modifications: staple 1-4 (inferred); bridge 10-14; not fully specified (residue 10, bridges); printed as Ac-PL3-Asp-Npg-B5-Hse-3COOHF-Ser-Ala-Phe-Lys*3-PyrS2-3Thi-BztA-GlnR*3-Ala-NH2; reading uncertain; also: Lys10 and GlnR14 marked *3

Target: beta-catenin (human)
Assay: cell-based or functional assay
Details: not given

Chain of beta-catenin (human) (B6V8E6 146-665 limits assumed): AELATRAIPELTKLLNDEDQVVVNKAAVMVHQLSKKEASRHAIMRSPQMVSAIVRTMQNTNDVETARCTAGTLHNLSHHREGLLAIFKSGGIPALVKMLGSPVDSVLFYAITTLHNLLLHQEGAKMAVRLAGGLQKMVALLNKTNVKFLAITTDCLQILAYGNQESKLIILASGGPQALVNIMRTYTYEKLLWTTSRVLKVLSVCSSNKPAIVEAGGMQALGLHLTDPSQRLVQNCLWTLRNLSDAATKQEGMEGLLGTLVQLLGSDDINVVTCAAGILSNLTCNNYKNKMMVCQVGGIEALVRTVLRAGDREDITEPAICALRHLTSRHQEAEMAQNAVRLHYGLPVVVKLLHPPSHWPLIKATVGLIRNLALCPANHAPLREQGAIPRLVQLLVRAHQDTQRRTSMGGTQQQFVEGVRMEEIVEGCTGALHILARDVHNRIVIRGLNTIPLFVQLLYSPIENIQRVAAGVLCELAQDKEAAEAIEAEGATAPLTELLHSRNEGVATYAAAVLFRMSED

NanoBRET Abs IC50	NanoBRET Abs IC50 (bin >3.0 uM)	Molecule
> 10 µM	–	B1
> 10 µM	–	B2
> 10 µM	–	B3
> 10 µM	–	B4
–	< 10 µM	B5

Target: beta-catenin (human)
Assay: fluorescence polarization; bin >200 nM
Details: not given

IC50	Molecule
< 0.75 µM	B1
< 0.75 µM	B2
< 0.75 µM	B3
< 0.75 µM	B6
< 0.75 µM	B4
< 0.75 µM	B5

Tested on: COLO320DM cells
Assay: COLO320DM proliferation assay
Format: cell-based, human
Details: read-out: COLO320DM Proliferation Abs IC50
Experimental: Various technologies can be utilized to assess technologies of the present disclosure. For example, in some embodiments, solubility, LogD, interactions with targets, etc. of various agents such as stapled peptides were assessed using technologies described in WO 2022/261257 (e.g., those in its Examples). In some embodiments, solubility, shake flask LogD, and binding to beta-catenin were assessed. In some embodiments, an assay for assessing interactions, e.g., with beta-catenin, was fluorescence polarization as described in WO 2022/261257. In some embodiments, an assay was Nano-BRET target engagement assay that assessed beta-catenin/TCF4 engagement as described in WO 2022/261257. In some embodiments, an assay was a reporter assay as reported in Example 4 of WO 2022/261257. In some embodiments, an assay was a COLO320DM proliferation assay as reported in Example 4 of WO 2022/261257.
Among other things, provided technologies can inhibit proliferation of various cells including various cancer cells. In some embodiments, provided technologies modulate WNT specific transcription. In some embodiments, provided technologies induce cell cycle arrest. In some embodiments, provided technologies induce G1 cell cycle arrest. In some embodiments, provided technologies increased proportion of cells in G1 phase of cell cycle. As confirmed in FIG. 3, provided technologies can inhibit proliferation of COLO320DM, which is a colorectal cell line comprising various mutations such as APC, TP53, etc., modulate WNT specific transcription such as of AXIN2 and CXCL12, and induce G1 cell cycle arrest. In some embodiments, it was confirmed that provided technologies can reduce proportion of cells in S phase of cell cycle.

Molecule	IC50
CC(=O)N1CCC[C@]12CC=CCCCC1(CCCC=CCCCOC(=O)N3CC[C@@]4(C3)NC(=O)[C@H](CCCCNC(=O)CC[C@@H](C(=O)N[C@@H](C)C(N)=O)NC(=O)[C@H](Cc3csc5ccccc35)NC(=O)[C@H](Cc3ccsc3)NC4=O)NC(=O)[C@H](Cc3ccccc3)NC(=O)[C@H](C)NC(=O)[C@H](Cc3ccccc3)NC(=O)[C@H](Cc3cccc(C(=O)O)c3)NC(=O)[C@H](CC(=O)O)NC1=O)NC(=O)[C@H](CC(C)(C)C)NC(=O)[C@H](CC(=O)O)NC2=O (relative stereo) [I-386, Ac-PL3-Asp-Npg-B5-Asp-3COOHF-Phe-Ala-Phe-Lys*3-PyrS2-3Thi-BztA-GlnR*3-Ala-NH2]	> 20 µM
CC(=O)N1CCC[C@@]1(C)C(=O)N[C@@H](CC(=O)O)C(=O)N[C@H](C(=O)N[C@]1(C)CCCCCCCCOC(=O)N2CC[C@@]3(C2)NC(=O)[C@H](CCCCNC(=O)CC[C@@H](C(=O)N[C@@H](C)C(N)=O)NC(=O)[C@H](Cc2csc4ccccc24)NC(=O)[C@H](Cc2ccsc2)NC3=O)NC(=O)[C@H](Cc2ccccc2)NC(=O)[C@H](C)NC(=O)C(C)(C)NC(=O)[C@H](Cc2cccc(C(=O)O)c2)NC(=O)[C@H](CC(=O)O)NC1=O)C(C)C (relative stereo) [I-237, Ac-MePro-Asp-Val-R5-Asp-3COOHF-Aib-Ala-Phe-Lys*3-PyrS2-3Thi-BztA-GlnR*3-Ala-NH2]	> 20 µM
CC(=O)N1CCC[C@]12CC=CCCCC1(CCCC=CCCCOC(=O)N3CC[C@@]4(C3)NC(=O)[C@H](CCCCNC(=O)CC[C@@H](C(=O)N[C@@H](C)C(N)=O)NC(=O)[C@H](Cc3csc5ccccc35)NC(=O)[C@H](Cc3ccccn3)NC4=O)NC(=O)[C@H](Cc3ccccc3)NC(=O)[C@H](C)NC(=O)C(C)(C)NC(=O)[C@H](Cc3cccc(C(=O)O)c3)NC(=O)[C@H](CC(=O)O)NC1=O)NC(=O)[C@H](CC(C)(C)C)NC(=O)[C@H](CC(=O)O)NC2=O (relative stereo) [I-299, Ac-PL3-Asp-Npg-B5-Asp-3COOHF-Aib-Ala-Phe-Lys*3-PyrS2-2PyrA-BztA-GlnR*3-Ala-NH2]	10 to 20 µM
CCCC[C@@H]1NC(=O)[C@H](CC(=O)O)NC(=O)[C@]2(CC=CCCCC3(CCCC=CCCCOC(=O)N4CC[C@@]5(C4)NC(=O)[C@H](CCCCNC(=O)CC[C@@H](C(=O)N[C@@H](C)C(N)=O)NC(=O)[C@H](Cc4csc6ccccc46)NC(=O)[C@H](Cc4ccsc4)NC5=O)NC(=O)[C@H](Cc4ccccc4)NC(=O)[C@H](C)NC(=O)C(C)(C)NC(=O)[C@H](Cc4cccc(C(=O)O)c4)NC(=O)[C@H](CC(=O)O)NC3=O)NC1=O)CCCN2C(C)=O (relative stereo) [I-245, Ac-PL3-Asp-nLeu-B5-Asp-3COOHF-Aib-Ala-Phe-Lys*3-PyrS2-3Thi-BztA-GlnR*3-Ala-NH2]	≤ 10 µM
CC(=O)N1CCC[C@]12CC=CCCCC1(CCCC=CCCCOC(=O)N3CC[C@@]4(C3)NC(=O)[C@H](CCCCNC(=O)CC[C@@H](C(=O)N[C@@H](C)C(N)=O)NC(=O)[C@H](Cc3csc5ccccc35)NC(=O)[C@H](Cc3ccccc3C)NC4=O)NC(=O)[C@H](Cc3ccccc3)NC(=O)[C@H](C)NC(=O)C(C)(C)NC(=O)[C@H](Cc3cccc(C(=O)O)c3)NC(=O)[C@H](CC(=O)O)NC1=O)NC(=O)[C@H](CC(C)(C)C)NC(=O)[C@H](CC(=O)O)NC2=O (relative stereo) [I-294, Ac-PL3-Asp-Npg-B5-Asp-3COOHF-Aib-Ala-Phe-Lys*3-PyrS2-2MeF-BztA-GlnR*3-Ala-NH2]	≤ 10 µM
CC(=O)N1CCC[C@]12CC=CCCCC1(CCCC=CCCCOC(=O)N3CC[C@@]4(C3)NC(=O)[C@H](CCCCNC(=O)CC[C@@H](C(=O)N[C@@H](C)C(N)=O)NC(=O)[C@H](Cc3csc5ccccc35)NC(=O)[C@H](Cc3cccnc3)NC4=O)NC(=O)[C@H](Cc3ccccc3)NC(=O)[C@H](C)NC(=O)C(C)(C)NC(=O)[C@H](Cc3cccc(C(=O)O)c3)NC(=O)[C@H](CC(=O)O)NC1=O)NC(=O)[C@H](CC(C)(C)C)NC(=O)[C@H](CC(=O)O)NC2=O (relative stereo) [I-300, Ac-PL3-Asp-Npg-B5-Asp-3COOHF-Aib-Ala-Phe-Lys*3-PyrS2-3PyrA-BztA-GlnR*3-Ala-NH2]	> 20 µM
